According to article PMC6944315:
Several values for one entry are separate records, joined by “and”; a condition that tells them apart may be missing. Equal values may be shown once. Blank lines part the entries; values can stand above or below the substance they belong to.

Legend:
[1] = target: Caldivirga maquilingensis type III sulfide:quinone oxidoreductase, wild type, His-tagged (Caldivirga maquilingensis IC-167); assay: SEC
[2] = target: CmSQR truncated 1 (T1), lacking the complete last C-terminal helix (Caldivirga maquilingensis IC-167); assay: native gel or EMSA
[3] = target: CmSQR truncated 1 (T1), lacking the complete last C-terminal helix (Caldivirga maquilingensis IC-167); assay: SEC
[4] = target: CmSQR truncated 2 (T2), lacking the last two C-terminal helices, His-tagged (Caldivirga maquilingensis IC-167); assay: native gel or EMSA
[5] = target: CmSQR truncated 2 (T2), lacking the last two C-terminal helices, His-tagged (Caldivirga maquilingensis IC-167); assay: SEC
[6] = target: CmSQR truncated 2 (T2), lacking the last two C-terminal helices, His-tagged (Caldivirga maquilingensis IC-167); assay: cross-linking

- stoichiometry N [1]: 2
Substance: Caldivirga maquilingensis type III sulfide:quinone oxidoreductase, wild type, His-tagged (enzyme)

- stoichiometry N [2]: 2
- stoichiometry N [3]: 2
Substance: CmSQR truncated 1 (T1), lacking the complete last C-terminal helix (domain or fragment)

- stoichiometry N [4]: 2 and 3
- stoichiometry N [5]: 2
- stoichiometry N [6]: 2 and 3
Substance: CmSQR truncated 2 (T2), lacking the last two C-terminal helices, His-tagged (domain or fragment)
